Here are results for one molecule from US20100081787A1 (FIBREX MEDICAL RESEARCH AND DEVELOPMENT, published 2010).

The assay concerns the target T1, vascular endothelial (VE) cadherin (human, UniProt P33151 48-784).
T1 sequence (looked up): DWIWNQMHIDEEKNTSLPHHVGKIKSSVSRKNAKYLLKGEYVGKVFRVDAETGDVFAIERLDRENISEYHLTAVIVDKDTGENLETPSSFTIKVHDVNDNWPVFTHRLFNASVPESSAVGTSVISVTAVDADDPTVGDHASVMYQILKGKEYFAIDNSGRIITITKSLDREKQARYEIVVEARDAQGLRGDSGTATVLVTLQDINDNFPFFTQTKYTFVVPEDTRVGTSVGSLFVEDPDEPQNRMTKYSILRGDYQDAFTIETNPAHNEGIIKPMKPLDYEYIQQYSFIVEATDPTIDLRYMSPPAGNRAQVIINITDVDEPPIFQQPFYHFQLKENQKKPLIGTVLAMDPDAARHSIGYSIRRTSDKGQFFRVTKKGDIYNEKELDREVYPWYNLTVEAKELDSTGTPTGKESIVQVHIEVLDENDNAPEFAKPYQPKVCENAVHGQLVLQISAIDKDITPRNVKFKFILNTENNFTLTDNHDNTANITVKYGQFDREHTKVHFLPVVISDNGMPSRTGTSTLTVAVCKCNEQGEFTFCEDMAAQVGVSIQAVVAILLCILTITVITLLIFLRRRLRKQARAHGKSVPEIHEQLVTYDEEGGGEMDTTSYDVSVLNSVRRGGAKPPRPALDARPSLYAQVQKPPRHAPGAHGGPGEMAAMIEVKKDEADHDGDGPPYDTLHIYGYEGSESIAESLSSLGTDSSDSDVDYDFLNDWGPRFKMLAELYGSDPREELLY
Description: cell-based or functional assay.

Numbered stars: 1 amine (or outer) side, 2 acyl side, 3 side chain; on linkers, the order of the positions; unused ones are H or OH. Square brackets hold non-standard residues; d marks the D form. Ends that are not written are not given here. ACHC(1S,2R) = O=C([C@H]1CCCC[C@H]1N[*:1])[*:2]

Consider GHRP[ACHC(1S,2R)]ISGG [Gly-His-Arg-Pro-(1S, 2R)Achc-Ile-Ser-Gly-Gly], for which the “Relative RhoA stimulation compared to unstimulated control” value was 2.2 relative to unstimulated control.
